Measurements taken from PMC2233751 (The Journal of General Physiology, 2001).

Target: actin filaments (UniProt P68135 1-377)
Assay: co-sedimentation

B1: myosin V 1IQ monomer (domain or fragment)
chain: MAASELYTKYARVWIPDPEEVWKSAELLKDYKPGDKVLQLRLEEGKDLEYCLDPKTKELPPLRNPDILVGENDLTALSYLHEPAVLHNLKVRFIDSKLIYTYCGIVLVAINPYEQLPIYGEDIINAYSGQNMGDMDPHIFAVAEEAYKQMARDERNQSIIVSGESGAGKTVSAKYAMRYFATVSGSASEANVEEKVLASNPIMESIGNAKTTRNDNSSRFGKYIEIGFDKRYRIIGANMRTYLLEKSRVVFQAEEERNYHIFYQLCASAALPEFKTLRLGNANYFHYTKQGGSPVIDGIDDAKEMVNTRQACTLLGISDSYQMGIFRILAGILHLGNVEFASRDSDSCAIPPKHDPLTIFCDLMGVDYEEMAHWLCHRKLATATETYIKPISKLHAINARDALAKHIYANLFNWIVDHVNKALHSTVKQHSFIGVLDIYGFETFEINSFEQFCINYANEKLQQQFNMHVFKLEQEEYMKEQIPWTLIDFYDNQPCINLIEAKMGVLDLLDEECKMPKGSDDTWAQKLYNTHLNKCALFEKPRLSNKAFIIKHFADKVEYQCEGFLEKNKDTVYEEQIKVLKSSKKFKLLPELFQDEEKAISPTSATPSGRVPLSRTPVKPAKARPGQTSKEHKKTVGHQFRNSLHLLMETLNATTPHYVRCIKPNDFKFPFTFDEKRAVQQLRACGVLETIRISAAGFPSRWTYQEFFSRYRVLMKQKDVLSDRKQTCKNVLEKLILDKDKYQFGKTKIFFRAGQVAYLEKIRADKLRAACIRIQKTIRGWLMRKKYMRMRR
Kd: 10 µM
